In the domain aggregation screens of Martell et al. (2025):

Experiment: soluble fraction after stress (log2 fold change); higher = more stays soluble; pooled small domains, quantitative proteomics
Conditions: stress: pH 4
How it was run: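 Values are log2 fold changes, and higher ones mean more of the domain stayed soluble. Each fold change reflects the soluble amount of a domain after acid stress and is taken as a measure of aggregation propensity. The stress was pH 4, applied to pooled custom libraries of small protein domains analysed by high-throughput quantitative proteomics.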

HMSALIGAHTLERIDSRDFEGVVMAWLPKRDGYDSLYKIYHIEDGDFEELDDREVQAAISLFIEGT
soluble fraction (log2): -0.388

HMGTTIAMSKLKQVLRWKEEGYSNRKIAQLVGLNKETVNNYISRANADSLSQKELLQLDDFVLDIRLRG
soluble fraction (log2): -0.138

HMFEDEPSEREIRISTLLAAFLKQEDGGTAVSRERFLKENSDVAEDLQILLEMADMIQEMAGP
soluble fraction (log2): -0.744

HMEDEVYFVPSPASRFNPWIAALASRRVPYRVEYDGAERRIAVPAGYAEKAGEELAAYERINHAWPR
soluble fraction (log2): -0.111

HMENTELIELRKKRNLSQSQLAELLDLTRNQIANYESGRRIPDQETKQIIAGFFEMPAEEIFAG
soluble fraction (log2): -0.0656

HMERAYGVRVSLRLDDPFRTLLGADWSRTHWFASAEERDAALLEMSRKHEFSRPGDQPALVYEKVQN
soluble fraction (log2): -0.471

HMGKDTLKLKKNAIPYDENGKKLTNLGYSYIKKTTVLNYYGTKIINGSTYYFLGDGVYIKAANVGTTSH
soluble fraction (log2): 0.232

HMSHYEYKVGDRVNLLDYDDFGILYKEKDNFYNVVVYYNGEFVEVNVKRITLEVAAKELYPEGYDLSTLFV
soluble fraction (log2): -2.41

HMGDKRPIAVGDYVKLEGQDTPGQVLSISGKNATVGFGMLKTTVKLDRLRHTMAKPQTGASAGVR
soluble fraction (log2): ≥ 0.43

HMSYFIFDGVLNLGKQYELKGEESSHITKSRRLRPGDSFLIQDQEGQRFEAILKSFDRNSLIFTPHKPTA
soluble fraction (log2): 0.043

HMKIPPIMFVRAIMVAGRQSMAIMDIEGVGTGIIVRSGYSFSNGEGKVVRIGPDKVTVNWSGKHLDLAPG
soluble fraction (log2): -0.121

HMLQNLGFKPDLEIRHFPGIVLPDIHRSKKTISLLYTLLAGDIKKLPENEINYKDSKIISSYLWTLLRYH
soluble fraction (log2): 0.22

HMLVSVSNYLGQNVDTVKSDLEALGLVVKLKEQQTDRESENGAVLEQSIEGGSKVSAGTPITLTYGK
soluble fraction (log2): -0.00697

HMAGSGLPVPRFVSLADDRVNARAGPGFRFPINWVYLRKGFPVEVVDEFGPWRRIRDIDGVAAWIHLSMLS
soluble fraction (log2): -0.848

HMGTHPGIDSGIISDILALKKELPTRSAAKIITMLTLAGKMEENSIHVKTVNRILYQYGYTRDTLS
soluble fraction (log2): -0.222

HMDTLHGRILEEFSRKIVDGTWPPGFSLPKETELADQYGVSRMTMNKVLTRLASDGFVIRRKRSGTVVAQP
soluble fraction (log2): -0.176

HMAPTVPEVVRLEEGAARSAIEAAGLSVGSVEFRASSDPAGTVLATRPIAGRKVRPSSAVDLVLSDGRTP
soluble fraction (log2): 0.0751

HMSFNLSETKKLILEEIQKGVSSVTQIAATAGISKGMTYNHLRELKLMGYIADGDSGYVITDAGKIAS
soluble fraction (log2): -0.323

HMYLPPYMEVRAVMILDGKPMALMYIEGEGDGLIVSPGYKFDNGKGKVVSITPTKVVVLWAGTKMELG
soluble fraction (log2): -1.17

HMHKYEYESLNHVNVGSNLKYISTHFGQPKLIKKSKYHENLNFAYYLEKKFILTLILEGDRVNAYTITG
soluble fraction (log2): -0.236

HMVMLIVMNHTASQADIDKVIEVVSGMGFTAAPIPGGERTAIGVLGNKGYVDDSTIRDLPGVQQAIHVSKP
soluble fraction (log2): -0.301

HMQFETVQDAFNHYRNASLEEIESRAAEIKGIIESDPEADVRALNIEIEGLHQAKQNILEKQKTK
soluble fraction (log2): -0.064

HMGAKVFTVPNLIGKYAIEAGIILKKEGLSEGEVKEENSDKYAAGQIIDQYPAADSPAKENDKINYVVSIG
soluble fraction (log2): -0.0221

HMKEIPTKKGDMLEIYEANGKYILKYPTFNITMPEVVKEIPKEAVDSYLAGKHDGEELINYANFGFWKS
soluble fraction (log2): 0.315

HMSISSIDFENLKSDELSDAQITQIYRQAQEQGLSIDELSSLAIARGMSPTEVAKLRSRFNSIP
soluble fraction (log2): 0.00293

HMASINRIENKNGKVVYRIIVSLGYDKQGKKLKKTITYNVNQTATKKQQENEALKYALDIEDKIKNGHD
soluble fraction (log2): -0.138

HMDFYPARVKWFNKSKGFGFANIFKSNDDIFLHIETLKRSGLSDLETGEAIVLTVTEGPRGKMADTILTWD
soluble fraction (log2): -0.411

HMNRPYETLFTGLTTDEASAIVGKLEEYGAADYKIEGDTIKVPAAQEPDLKAKLLLDGYPKS
soluble fraction (log2): 0.0842

HMSAEKDGEWLTLTEAAKHLQVSPHVIRRLIQTGALPAEQVMRGAPHQIRAADLDTDRVKTMIAR
soluble fraction (log2): 0.228

HMTPKTSVPKPGQTVVVRKGDTIYALARIHDITPADLIAWNRLDNPSQIYPGQVIRLYPQGA
soluble fraction (log2): 0.105

HMAVVEVATTTATEYKVEKGHHFKVGDFVMFKTGAKSYAITAIDTTSPIFDKITVGTTLGEAIPVGGTLM
soluble fraction (log2): -1.45

HMDIPTSAEAVRAYLASGFIKGIGEATARMLVDKFGAETLEIIKTEPMKLTKISGIGPKKAKMIHESYLEK
soluble fraction (log2): -0.0191

HMDYSWNFFIGFSVVDKVAGNLGTIEEIDDKTINTLFLVKNDDEDLIIPATEDFVEKIDAKKRILYLNLPE
soluble fraction (log2): -1.79

HMEKTTTLFDETTNPGIIYIGKAMPTGSAISEAAAVWAIKTIDTTTDTEIKWADGVTTYTKVWNNRASYSY
soluble fraction (log2): -1.35

HMTTTTTYITNTDAVNIRQQATTSSTSLGKLAKNTILSVKKKSGDWYQITYKKQTAYIHASLVDKKTAKVT
soluble fraction (log2): ≥ 0.43

HMWQPIKLDRGDWQNSLQVGDRVFVRGIPRPVEILSAVDEENNIEVLMGTMRAKIPVYQLDKPAENFIDTT
soluble fraction (log2): -0.711

HMDNQYGVYSDEKNNVEIHWKRIDHPSVAKDHLDIEAYQNGKRVDINNQQADHYRYLINQEMNE
soluble fraction (log2): 0.226

HMKEPFETMPDVMDAKQIAEALQISKAGAYNLLNSPDFPTLRIGGRKLVMKNELVEWLKSHTNRK
soluble fraction (log2): 0.126

HMQNNIEFTVLEEDAQKRLDVLLSEKTALSRSASASLIEEGGVLVNGRKEPKKYKPVRGEIITAILPE
soluble fraction (log2): -0.549

HMKTTSYAKLLRFLRTERDLSQITVAKQLGLSRASYLALEHGSRELSLSEAVKVTTLYGIRIDDLIVNH
soluble fraction (log2): -0.899

HMTGLSAQILAKLRDNHGVLPVSDKSDPAVISNLFGVSKGNFKKAIGGLYKEGQIVIHADRIEL
soluble fraction (log2): 0.302

HMDINVDILPLLKTMTDTLRKVIELDIPFLKDARVQRVNSLDELLLRADITTAEKFRKVFEAYQIEADFGK
soluble fraction (log2): -1.05

HMGHTKLVVDIVEELKLEQGALLPILHAIQDELGYVPTKSVPFIADSLNLSRAEVHGVISFYHYFR
soluble fraction (log2): -0.741

HMKVTGSVQKKKGYYYIVVRLPTKNGTQYEQKQKWFNTKLKATPRNKTAAQVILAEKLTEYGGIV
soluble fraction (log2): ≥ 0.43

HMGPDGLFAKFREPETGKDLLITQNVFVEQVLIKGVLTRTLTDAEANTYRAPFVNPEKRFPIYVWPNELP
soluble fraction (log2): -0.0131

HMDRDPAEAGYDDGYLSGNTDGMNNDERATYDESSQYPTPDERQSYAAAYRRGYAAGFADGRKQAV
soluble fraction (log2): -0.138

HMLQMSDSSALEAILDEVLGSEMGQKALSDIEAGNMKAMGFIIGQSMKLSKGQANPQIINKLLQQRLK
soluble fraction (log2): -0.487

HMSDTMTVTNVKYAIYLRSTPSEASDANIIMEIPVGSKVTYLDTPNNTFYKISYGGTVGYSKQIYLTF
soluble fraction (log2): -0.482

HMTNQKEITYSQFRQELDQGSIKSVSLQGSRIRGTYVDGGISFRTLAPNDADLIPSLMKHKVDIQVLPED
soluble fraction (log2): 0.0675

HMVDVEMLTTVSDHIEAKLLQGILENHGIPSYSVDEESGEYMRVYMGYSIFGEKIYVRASDLLAAQGYL
soluble fraction (log2): -1.93

HMKDSKSALQEYALERKMGLPVYEVVDRSGPDHAPQFVIAVSLGEWRLEAKGASKRQAEQQAASLMLEEI
soluble fraction (log2): -0.0445

HMTVDHDERRSMILEAFMRLAAREGLHAVSLRGVAAEAGISLRLVQYYFETKARLMQSGLTALET
soluble fraction (log2): -0.501

HMAVKTEHGRIWKALPEGQDGYREDVPMFTSKSMYDGSAGIGIFLIRLYEATSDERWLKEAEEAAAHII
soluble fraction (log2): 0.308

HMPNSIKAPAYLHNIARIYDHVLIDVEKASSAYEKLIKKYPNHPLSINAKLYLENAFNRSDEELLNMIKEN
soluble fraction (log2): -0.624

HMRTRSDVKRAAIIQAAKDAFQEYGVNATSMDKLAEMASVSKRTVYNHFSAKEELVMHIVKE
soluble fraction (log2): 0.174

HMDESLLDYALREIKARIQNGTYPPGTKLSTQEISDSLGISRTPVVAAINRLVAQGVAEAIPRRGTIVAR
soluble fraction (log2): 0.015

HMALPHEIKQKWLEEIMTMLRSSDSVTINKVYLHFPENKSHWVDEILTDLSNTHMITRQHDFIRLKN
soluble fraction (log2): -0.221

HMKRWHVGDPIDALTAAGKVPSWSTIRQRFWKTIAALYPDIEQSERLQRGLAMLDEAGTSIELHHP
soluble fraction (log2): -0.615

HMRFTVSDKMDMLLKSLSAGQSMPFKSLFASASTKSEVIVTFLALLELMKLNQFVVWQDQILGEIEIERR
soluble fraction (log2): -0.162

HMAFKEQLKAARLAKGYTQEQLATAIGVAKSTFTGYEKGNSEPNMLTIKKLMEILEVDANYLWY
soluble fraction (log2): -1.44

HMSILSRREHEIMQWVKGGKTNIEIAQILGISARTVRNHLQNVFRKLDVINRAQAVFEVERRR
soluble fraction (log2): -0.639

HMGGLALAEREVVEWLSQRNLLPSPDVVARAAAHPDGLGWLERSLAVLEGPRLFLGLGDLVPEP
soluble fraction (log2): -1.02

HMSIDNALLTLIGKTGTAQTVLRPSGKVVIGDEVYDAVTAGEFIDKGSAIVVTRVEATQLYVEASEA
soluble fraction (log2): -0.343

HMPQLSNEEQKIVDALEGSDGKQINLITVETNIPMARLMSVLFEMEMRGIVKSLNGARYKLN
soluble fraction (log2): -0.026

HMSTVAETVYNEIRDDILYGELQPGVKLKLEALRERYSVGVNTLREVLNRLVASGFVFVEGQKGFRVV
soluble fraction (log2): -0.377

HMRPAAELGLPHAPKHFIQYLTEDDRPQVLKDVDYEGGMGVSIGRLREDSIFDWKFVGLAHNTL
soluble fraction (log2): 0.0686

HMGPGFVGGSVLSGGNRGEGDPVANAQVFITDMDDNVVAFTKTDAEGNFDMTNLAYGDYKMYVDILNK
soluble fraction (log2): -0.741

HMNFNYPVIVKNSRINVSGVLSAAKLYTINGQLLQSYKGSGEFTSKTLTKGIYILQVDNARTKVLV
soluble fraction (log2): ≥ 0.43

HMIGIRLKELVLKNQSAWVGLRVSELDISRKTMIVMIRRGDKMLIPNGSTILRSGDVLLLYTR
soluble fraction (log2): -0.354

HMAAGLTPKQKAFADNYIKNGGNAAEAARAAGYSLKNVGANAGKLLKNPKIAAYIAEKQAELDRRNGT
soluble fraction (log2): -0.13

HMKGDYWIIDLDKNYQYAIISEPDRQYLWILSRSPNMDTQTLETLKEKIRSKGFDLTYLKQTL
soluble fraction (log2): -1.24

HMLDFLVSKYESELLADLLWSLGVVAVEEREATGDLVTLRTSLGDDHSFTRELVQEKFPDVIVSTAL
soluble fraction (log2): -2.23

HMSLSQLGLTPRQTDVLALLLKGQPNKLIARELGLSVETVKDHVAAVLRALNVSSRTQAVIAVSQMLQ
soluble fraction (log2): -0.533

HMLPKTVTLIDPVSGVAKTVTWVPALTLYSARRKAGLNRVPNTATIDRGGRELTGKRGSTLQPGDVVRW
soluble fraction (log2): ≥ 0.43

HMELTDRQKQIIEIVKKQQPISGEKIASILGFARATLRPDFSLLTMSGILQAKPKVGYLINEE
soluble fraction (log2): 0.158
